Measurements: patent publication US20150098945A1 (Daiichi Sankyo, published 2015)

T1: N-terminal FLAG-tagged human ROBO4 extracellular region/domain deletion variant hROBO4-210 (human, UniProt Q8WZ75 210-1007)
T1 construct: On transfected HEK293 cells; also called pCI-FLAG-hROBO4-210; pCI-hROBO4-210
T1 sequence: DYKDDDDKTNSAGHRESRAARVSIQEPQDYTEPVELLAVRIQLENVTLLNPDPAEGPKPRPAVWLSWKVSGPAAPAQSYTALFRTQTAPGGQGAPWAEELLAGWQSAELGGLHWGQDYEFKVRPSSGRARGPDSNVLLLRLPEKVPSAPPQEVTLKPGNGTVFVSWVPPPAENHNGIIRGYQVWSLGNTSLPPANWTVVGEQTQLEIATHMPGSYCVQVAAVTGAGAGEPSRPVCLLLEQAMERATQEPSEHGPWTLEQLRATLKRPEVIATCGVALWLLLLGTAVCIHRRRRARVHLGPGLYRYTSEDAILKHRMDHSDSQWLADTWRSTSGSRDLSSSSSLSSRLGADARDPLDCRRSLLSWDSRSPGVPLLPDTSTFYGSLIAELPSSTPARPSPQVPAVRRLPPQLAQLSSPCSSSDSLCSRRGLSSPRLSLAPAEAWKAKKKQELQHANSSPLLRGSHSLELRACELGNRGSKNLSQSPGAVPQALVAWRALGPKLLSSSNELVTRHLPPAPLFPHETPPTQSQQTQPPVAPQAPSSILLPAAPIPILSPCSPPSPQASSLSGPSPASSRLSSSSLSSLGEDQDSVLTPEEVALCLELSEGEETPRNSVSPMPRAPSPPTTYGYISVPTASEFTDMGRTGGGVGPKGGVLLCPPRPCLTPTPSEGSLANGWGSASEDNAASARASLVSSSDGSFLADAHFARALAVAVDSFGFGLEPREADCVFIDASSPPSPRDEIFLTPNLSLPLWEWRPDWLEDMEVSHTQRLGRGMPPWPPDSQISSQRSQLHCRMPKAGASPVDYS

T2: N-terminal FLAG-tagged cynomolgus monkey ROBO4, cynoROBO4-1 (pCI-FLAG-cynoROBO4-1) (cynomolgus monkey, UniProt Q8WZ75 28-1007 (human entry))
T2 chain: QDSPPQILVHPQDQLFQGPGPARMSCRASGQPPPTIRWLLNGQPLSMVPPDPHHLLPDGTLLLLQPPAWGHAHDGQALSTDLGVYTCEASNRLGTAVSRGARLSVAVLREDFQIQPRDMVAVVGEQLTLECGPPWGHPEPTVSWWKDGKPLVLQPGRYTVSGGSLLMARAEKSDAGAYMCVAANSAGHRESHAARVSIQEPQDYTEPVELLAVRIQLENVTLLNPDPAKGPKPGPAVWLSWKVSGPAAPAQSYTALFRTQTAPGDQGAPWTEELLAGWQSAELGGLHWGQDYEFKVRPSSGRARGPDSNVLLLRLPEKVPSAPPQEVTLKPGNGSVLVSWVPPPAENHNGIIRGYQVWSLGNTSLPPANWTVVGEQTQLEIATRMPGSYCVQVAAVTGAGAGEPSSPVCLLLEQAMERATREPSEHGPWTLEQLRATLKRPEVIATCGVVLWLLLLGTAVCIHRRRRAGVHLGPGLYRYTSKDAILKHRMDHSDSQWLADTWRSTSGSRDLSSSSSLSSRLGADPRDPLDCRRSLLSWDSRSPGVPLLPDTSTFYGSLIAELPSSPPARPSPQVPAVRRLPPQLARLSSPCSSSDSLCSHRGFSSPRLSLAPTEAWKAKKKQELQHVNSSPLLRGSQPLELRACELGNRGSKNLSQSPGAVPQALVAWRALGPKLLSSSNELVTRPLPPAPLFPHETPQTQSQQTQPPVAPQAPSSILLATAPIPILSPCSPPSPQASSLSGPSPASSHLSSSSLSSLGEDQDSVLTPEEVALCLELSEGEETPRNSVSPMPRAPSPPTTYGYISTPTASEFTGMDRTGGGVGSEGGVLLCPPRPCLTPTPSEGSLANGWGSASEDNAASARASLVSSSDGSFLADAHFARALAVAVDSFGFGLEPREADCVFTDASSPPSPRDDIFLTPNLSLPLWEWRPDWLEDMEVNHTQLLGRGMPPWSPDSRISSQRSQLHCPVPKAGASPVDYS


Tests used:
[1] = molecular target: T1, N-terminal FLAG-tagged human ROBO4 …; experiment: flow cytometry, HEK293 cells transfected with pCI-FLAG-hROBO4-210, anti-mouse IgG FITC; control histogram IgG (Mouse IgG2a)
Procedure: HEK293 cells were inoculated at a concentration of 1.5×10⁶ cells/dish to a 60-mm dish (manufactured by Corning Inc.) and cultured overnight in a DMEM medium containing 10% FBS at 37° C. under 5% CO₂ conditions. […] On the next day, the expression vector-transfected cells were treated with TrypLE Express (manufactured by Life Technologies Corp.), washed with PBS containing 5% FBS, and then suspended in PBS containing 5% FBS. The obtained cell suspension was used in flow cytometry analysis.
Each cell suspension prepared in 4)-5-1 was centrifuged, and the supernatant was removed. Then, MAb1, a positive control Monoclonal ANTI-FLAG M2 antibody produced in mouse, or a negative control Mouse IgG2a was added at a concentration of 10 μg/mL to 2×10⁵ expression vector-transfected cells, and the resulting suspension was left standing at 4° C. for 1 hour. The cells were washed once with PBS containing 5% FBS. Then, Anti-Mouse IgG FITC conjugate diluted 1000-fold with PBS containing 5% FBS was added thereto, and the resulting suspension was left standing at 4° C. for 1 hour. […] Data was analyzed using Flowjo. The histogram of FITC fluorescence intensity was prepared. The antibody was determined to bind to a cell when the histogram of MAb1 was shifted to a stronger fluorescence intensity region compared with the histogram of the negative control Mouse IgG2a. […]

[2] = molecular target: T2, N-terminal FLAG-tagged cynomolgus …; experiment: flow cytometry (FC500), HEK293 cells transfected with pCI-FLAG-cynoROBO4-1, antibody at 10 µg/mL, FITC goat anti-human IgG Fc; control histogram IgG (human IgG)

binding result [1]	binding result [2]	Binder
no binding (tested: 10 µg/mL)	–	anti-ROBO4 mouse monoclonal antibody MAb1 (antibody, mouse IgG1, V domains shown, Mouse IgG1 (gamma1), kappa light chain, purified from hybridoma supernatant; also called parent antibody MAb1) VH: EVQLVESGGGLVKPGGSLKLSCAASGFTFSTYAMSWVRQTPEKRLEWVATISNGGTYTYYPDSVKGRFTISRDNAENTLYLQMSSLRSEDTAMYFCARLIYYDYLDYWGHGTTLTVSS VL: DAVMTQTPLSLPVSLGDQASISCRSSQSLENSNGNTYLNWYFQKPGQSPQLLIYRVSNRFSGVLDRFSGSGSGTDFTLKISRVEAEDFGVYFCLQVTHVPWTFGGGTKLEIKR
–	binds	humanized MAb1 antibody H-2143 (antibody, human IgG2, kappa, V domains shown, Human IgG2 / kappa constant regions; also called hMAb1-H4-type heavy chain + hMAb1-L2-type light chain) VH: EVQLVESGGGLVQPGGSLRLSCAASGFTFSTYAMSWVRQAPGKRLEWVATISQGGTYTYYPDSVKGRFTISRDNAKNTLYLQMNSLRAEDTAVYYCARLIYYDYLDYWGQGTLVTVSS VL: DIVMTQSPLSLPVTLGEPASISCRSSQSLENENKNLYLNWYLQKPGQSPQLLIYRVSNRFSGVPDRFSGSGSGTDFTLKISRVEAEDVGVYYCLQVTHVPWTFGPGTKVDIKR
